Measured values from US20260008817A1, “CYCLIC PEPTIDE OR SALT THEREOF, AND USES THEREOF” (FUJIFILM Corporation, priority 2023, published 2026).
Positions of bridges follow the written chain, without caps; N, C: chain ends. No end group written: not given here. COCH2 = acetyl group that carries the bridge

target: T1, Recombinant Human FGFR1 alpha (IIIc) Fc Chimera Protein (Homo sapiens, UniProt P11362); test: ELISA binding affinity of enzymatically synthesized peptide to FGFR; settings: ELISA luminescence signal at 10 nmol/L peptide, SEQ ID NO: 239 standardized to 1; enzyme synthesis product
T1 construct: purchased R&D systems 658-FR-050
T1 sequence (P11362 with tags, fused parts or gaps limits assumed): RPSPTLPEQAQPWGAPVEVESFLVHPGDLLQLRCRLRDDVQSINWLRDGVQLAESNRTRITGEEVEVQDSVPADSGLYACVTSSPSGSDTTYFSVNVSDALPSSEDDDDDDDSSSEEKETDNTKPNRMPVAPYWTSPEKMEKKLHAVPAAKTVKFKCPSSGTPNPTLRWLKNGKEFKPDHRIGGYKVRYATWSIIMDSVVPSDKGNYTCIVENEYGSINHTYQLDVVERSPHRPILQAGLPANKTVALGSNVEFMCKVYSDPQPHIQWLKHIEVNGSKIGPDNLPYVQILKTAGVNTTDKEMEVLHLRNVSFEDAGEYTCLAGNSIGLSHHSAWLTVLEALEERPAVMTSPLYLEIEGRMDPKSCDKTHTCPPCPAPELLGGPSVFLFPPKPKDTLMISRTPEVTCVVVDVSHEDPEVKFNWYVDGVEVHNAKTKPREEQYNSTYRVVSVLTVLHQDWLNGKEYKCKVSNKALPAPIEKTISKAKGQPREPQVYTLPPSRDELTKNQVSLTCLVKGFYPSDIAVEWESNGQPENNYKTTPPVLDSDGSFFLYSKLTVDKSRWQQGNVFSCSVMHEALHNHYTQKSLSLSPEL
Summary of the method: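 Cell-free PUREfrex-translated cyclic peptides (Myc/HiBiT-tagged, quantified by HiBiT luminescence) bound 3 h at room temperature to immobilized FGFR1α(IIIc)-Fc, detected with anti-Myc and chemiluminescence. FGFR-specific signal at 10 nmol/L normalized to a reference cyclic peptide and graded A–D.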

Evaluation result of binding affinity to FGFR | Substance
C (0.1 or more and less than 0.5) | 213 (ICVYTFDAHAHSLHAATTK(COCH2)I; thioether 2-19 (inferred)) [compound 213]
C (0.1 or more and less than 0.5) | 214 (ICVYTFDAHAHSLHAALAK(COCH2)I; thioether 2-19 (inferred)) [compound 214]
C (0.1 or more and less than 0.5) | 215 (ICVYTFDAHAHSLHAALGK(COCH2)I; thioether 2-19 (inferred)) [compound 215]
C (0.1 or more and less than 0.5) | 216 (ICVYTFDAHAHSLHAALPK(COCH2)I; thioether 2-19 (inferred)) [compound 216]
C (0.1 or more and less than 0.5) | 217 (ICVYTFDAHAHSLHAALVK(COCH2)I; thioether 2-19 (inferred)) [compound 217]
C (0.1 or more and less than 0.5) | 218 (ICVYTFDAHAHSLHAALFK(COCH2)I; thioether 2-19 (inferred)) [compound 218]
A (0.7 or more) | 219 (ICVYTFDAHAHSLHAALNK(COCH2)I; thioether 2-19 (inferred)) [compound 219]
A (0.7 or more) | 220 (ICVYTFDAHAHSLHAALQK(COCH2)I; thioether 2-19 (inferred)) [compound 220]
C (0.1 or more and less than 0.5) | 221 (ICVYTFDAHAHSLHAALSK(COCH2)I; thioether 2-19 (inferred)) [compound 221]
C (0.1 or more and less than 0.5) | 222 (ICVYTFDAHAHSLHAALEK(COCH2)I; thioether 2-19 (inferred)) [compound 222]
A (0.7 or more) | 223 (ICVYTFDAHAHSLHAALRK(COCH2)I; thioether 2-19 (inferred)) [compound 223]
A (0.7 or more) | 224 (ICVYTFDAHAHSLHAALHK(COCH2)I; thioether 2-19 (inferred)) [compound 224]
B (0.5 or more and less than 0.7) | 225 (ICVYTFDAHAHSLHAALTK(COCH2)A; thioether 2-19 (inferred)) [compound 225]
C (0.1 or more and less than 0.5) | 226 (ICVYTFDAHAHSLHAALTK(COCH2)L; thioether 2-19 (inferred)) [compound 226]
A (0.7 or more) | 227 (ICVYTFDAHAHSLHAALTK(COCH2)V; thioether 2-19 (inferred)) [compound 227]
C (0.1 or more and less than 0.5) | 228 (ICVYTFDAHAHSLHAALTK(COCH2)F; thioether 2-19 (inferred)) [compound 228]
C (0.1 or more and less than 0.5) | 229 (ICVYTFDAHAHSLHAALTK(COCH2)Y; thioether 2-19 (inferred)) [compound 229]
A (0.7 or more) | 230 (ICVYTFDAHAHSLHAALTK(COCH2)W; thioether 2-19 (inferred)) [compound 230]
C (0.1 or more and less than 0.5) | 231 (ICVYTFDAHAHSLHAALTK(COCH2)N; thioether 2-19 (inferred)) [compound 231]
A (0.7 or more) | 232 (ICVYTFDAHAHSLHAALTK(COCH2)Q; thioether 2-19 (inferred)) [compound 232]
C (0.1 or more and less than 0.5) | 233 (ICVYTFDAHAHSLHAALTK(COCH2)S; thioether 2-19 (inferred)) [compound 233]
C (0.1 or more and less than 0.5) | 234 (ICVYTFDAHAHSLHAALTK(COCH2)T; thioether 2-19 (inferred)) [compound 234]
A (0.7 or more) | 235 (ICVYTFDAHAHSLHAALTK(COCH2)R; thioether 2-19 (inferred)) [compound 235]
A (0.7 or more) | 236 (ICVYTFDAHAHSLHAALTK(COCH2)H; thioether 2-19 (inferred)) [compound 236]
A (0.7 or more) | 237 (VCIYTFNHLAQTYWQSLNK(COCH2)V; thioether 2-19 (inferred)) [compound 237]
C (0.1 or more and less than 0.5) | 238 (VCIWVFNRFAHTLKESLTK(COCH2)V; thioether 2-19 (inferred)) [compound 238]
A (0.7 or more) | 239 (ACVWTFDRHAQEISQALHKV; not fully specified (residue 19, bridges); also: cyclic peptide, ring not given here) [compound 239]

Evaluation result of binding affinity to FGFR | Substance
A (0.7 or more) | 240 (ACVYLFNWRATSYGKSLIK(COCH2)W; thioether 2-19 (inferred)) [compound 240]
C (0.1 or more and less than 0.5) | 241 (HCKLYSYPLWYWPKWVFQTK(COCH2)E; thioether 2-20 (inferred)) [compound 241]
B (0.5 or more and less than 0.7) | 242 (ACGVHQWEIGEWFGYRYYYK(COCH2)P; thioether 2-20 (inferred)) [compound 242]
C (0.1 or more and less than 0.5) | 243 (QCYLPSWFYQKARLLFQYIK(COCH2)S; thioether 2-20 (inferred)) [compound 243]
A (0.7 or more) | 244 (DCTQGKILTYSQALFSFGVK(COCH2)I; thioether 2-20 (inferred)) [compound 244]
A (0.7 or more) | 245 (NCVYYAKPVFAHANRVWTYIK(COCH2)I; thioether 2-21 (inferred)) [compound 245]
C (0.1 or more and less than 0.5) | 246 (PCIYTFDQSAIKYKIGFVLRK(COCH2)V; thioether 2-21 (inferred)) [compound 246]
C (0.1 or more and less than 0.5) | 248 (QCWLQGPYWSDIKIYIYQHDK(COCH2)Y; thioether 2-21 (inferred)) [compound 248]
C (0.1 or more and less than 0.5) | 249 (VCVRPIFIFSFRAPFNAVDWK(COCH2)I; thioether 2-21 (inferred)) [compound 249]
C (0.1 or more and less than 0.5) | 251 (TCWTAWQWFGHWVPFVAK(COCH2)T; thioether 2-18 (inferred)) [compound 251]
A (0.7 or more) | 252 (RCVYSFDPARYPYHLKK(COCH2)V; thioether 2-17 (inferred)) [compound 252]
B (0.5 or more and less than 0.7) | 253 (TCFSPGQIWIWTHLVTAIRNK(COCH2)T; thioether 2-21 (inferred)) [compound 253]
C (0.1 or more and less than 0.5) | 254 (LCVYTFNWQQKFGHHLTK(COCH2)I; thioether 2-18 (inferred)) [compound 254]
C (0.1 or more and less than 0.5) | 255 (FCTLWQFGNLVWTHESPFIK(COCH2)Q; thioether 2-20 (inferred)) [compound 255]
A (0.7 or more) | 256 (DCVYQYDRNAHYWDTALVK(COCH2)V; thioether 2-19 (inferred)) [compound 256]
C (0.1 or more and less than 0.5) | 257 (FCAWVVDYQELHQFWSIVQK(COCH2)I; thioether 2-20 (inferred)) [compound 257]
A (0.7 or more) | 258 (VCVRPIFIFSFRAPFNAVDWK(COCH2)N; thioether 2-21 (inferred)) [compound 258]
C (0.1 or more and less than 0.5) | 259 (TCNIWQFNPAARWGFHLVYK(COCH2)Y; thioether 2-20 (inferred)) [compound 259]
C (0.1 or more and less than 0.5) | 260 (ICREVIVGSLYTWDGNRGFFKV; Description of Artificial Sequence: Cyclic peptide) [compound 260]
C (0.1 or more and less than 0.5) | 261 (LCYINLFTHTKV; Description of Artificial Sequence: Cyclic peptide) [compound 261]
C (0.1 or more and less than 0.5) | 262 (WCNFANVWTFNKS; Description of Artificial Sequence: Cyclic peptide) [compound 262]
C (0.1 or more and less than 0.5) | 263 (QCYHIIVYTFVKP; Description of Artificial Sequence: Cyclic peptide) [compound 263]
C (0.1 or more and less than 0.5) | 264 (VCIFTWDRVHWPVKV; Description of Artificial Sequence: Cyclic peptide) [compound 264]
B (0.5 or more and less than 0.7) | 265 (VCIYTWDRQSWPVKL; Description of Artificial Sequence: Cyclic peptide) [compound 265]
A (0.7 or more) | 266 (DCIWQWHPWSGYTKL; Description of Artificial Sequence: Cyclic peptide) [compound 266]
A (0.7 or more) | 267 (DCIWQWTPTKSFQKL; Description of Artificial Sequence: Cyclic peptide) [compound 267]
C (0.1 or more and less than 0.5) | 268 (SCIYQWDYVHWPIKL; Description of Artificial Sequence: Cyclic peptide) [compound 268]
